Some results are limits rather than exact numbers.

Results on five molecules are retold here after US20170056486A1.

Assay [1] addresses HLA-A*24 (human). The experiment in a line: UV-exchange ELISA (anti-b2m); yield 20%-49%. (In general: In an ELISA, binding on a coated surface is turned into a signal by an enzyme label.)
Assay [2] concerns the target HLA-A*24 (human). The experiment in a line: UV-exchange ELISA (anti-b2m); yield <20%.

With AYSHLRYVF, the peptide exchange yield with HLA-A*24 (human) [1] is 20 to 49%. In the assay with HLA-A*24 (human) [1], VFLPRVTEL registered a peptide exchange yield of 20 to 49%. For the molecule TYKDYVDLF, the peptide exchange yield in the assay with HLA-A*24 (human) [2] is below 20%. For the molecule SYAELGTTI, the peptide exchange yield in the assay with HLA-A*24 (human) [1] was in the range of 20 to 49%. Take LYQDHMQYI: the peptide exchange yield in the assay with HLA-A*24 (human) [1] fell in the range of 20 to 49%.
